Test in all cases: NADH formation at A340
Substrate in series [1]: O=C[C@H](O)[C@H](O)COP(=O)(O)O
The format is biochemical, Escherichia coli. The settings on record: NAD+ 2 mM, 50 mM PPi buffer pH 8.6, 1 mM DTT, 37 °C. The text has this:
(§1) NADH formation at A340 on Eco_Epd

Substrate in series [2]: NC(=O)c1ccc[n+]([C@@H]2O[C@H](COP(=O)(O)OP(=O)(O)OC[C@H]3O[C@@H](n4cnc5c(N)ncnc54)[C@H](O)[C@@H]3O)[C@@H](O)[C@H]2O)c1
It is filed as biochemical, Escherichia coli. The settings on record: E4P 8 mM, 50 mM PPi buffer pH 8.6, 1 mM DTT, 37 °C, varied: cofactor.
Text: as §1

Substrate in series [3]: O=C[C@H](O)[C@H](O)COP(=O)(O)O
The format is biochemical, Brumicola nitratireducens. The settings on record: NAD+ 2 mM, 50 mM PPi buffer pH 8.6, 1 mM DTT, 37 °C. From the text:
(§2) NADH formation at A340 on […]

Substrate in series [4]: NC(=O)c1ccc[n+]([C@@H]2O[C@H](COP(=O)(O)OP(=O)(O)OC[C@H]3O[C@@H](n4cnc5c(N)ncnc54)[C@H](O)[C@@H]3O)[C@@H](O)[C@H]2O)c1
The format is biochemical, Brumicola nitratireducens. Particulars: E4P 8 mM, 50 mM PPi buffer pH 8.6, 1 mM DTT, 37 °C, varied: cofactor.
Text: as §2

B1: Eco_Epd (Escherichia coli K-12) (protein)
chain: TVRVAINGFGRIGRNVVRALYESGRRAEITVVAINELADAAGMAHLLKYDTSHGRFAWEVRQERDQLFVGDDAIRVLHERSLQSLPWRELGVDVVLDCTGVYGSREHGEAHIAAGAKKVLFSHPGSNDLDATVVYGVNQDQLRAEHRIVSNASCTTNCIIPVIKLLDDAYGIESGTVTTIHSAMHDQQVIDAYHPDLRRTRAASQSIIPVDTKLAAGITRFFPQFNDRFEAIAVRVPTINVTAIDLSVTVKKPVKANEVNLLLQKAAQGAFHGIVDYTELPLVSVDFNHDPHSAIVDGTQTRVSGAHLIKTLVWCDNEWGFANRMLDTTLAMATVAFR
As to B1, in “NADH formation at A340 [1]”, the Km is 969 µM, the kcat turned out to be 0.15 s⁻¹ and the kcat/Km worked out at 155 M⁻¹ s⁻¹. Also, in “NADH formation at A340 [2]”, the Km came out at 717 µM, the kcat was determined as 3.23 s⁻¹ and the kcat/Km is 4510 M⁻¹ s⁻¹.

B2: Gni_Epd (Brumicola nitratireducens FR1064) (protein)
chain: MLRIAINGFGRIGRNVLRALYESGRNDQIQVVAINEIASPEGVAHLLKYDTAHGRFKGTVDYTDQCLIVNGDKIPLFQKNNIEELAWSTVNVDIVLECTGVFSSRESAQQHIDNGARKVLFSQPCGQDMDATIVFGVNHKTLKPSDVIVSNGSCTTNCIVPIIQVLDEAFGVESGTITTIHSSMNDQQVIDAYHPDLRRTRAASQSIIPVDTRLHVGIERILPRFAGKFEAIAVRVPTINVTAMDLSVTLRDKVTVSDVNAVLKKSAHGELKRIIDYTEEPLVSVDFNHDPHSSIVDGTQTRVSHKQLVKTLVWCDNEWGFANRMLDTALHMHQLDS
B2: in the series “NADH formation at A340 [3]”, the Km is 737 µM, the kcat worked out at 0.323 s⁻¹ and the kcat/Km came to 438 M⁻¹ s⁻¹. Moreover, in “NADH formation at A340 [4]”, the Km turned out to be 51 µM, the kcat was found to be 0.313 s⁻¹ and the kcat/Km is 6140 M⁻¹ s⁻¹.

For the origin of these results see PMC10471632, “Protein engineering and iterative multimodule optimization for vitamin B6 production in Escherichia coli” (Nature Communications, 2023).
